The data set deals with […] peptide substrate.

Residue numbers refer to the chain shown, from its start.

Three proteins from US20140017764 can be followed below.

B1: TEV-PE10, purified (protein)
chain: HHHHHHSLFKGPRDYNPISSTICHLTNESDGHTTSLYGIGFGPFIITNKHLFRRNNGTLLVQSLHGVFKVKNTTTLQQHLIDGRDMIIIRMPKDFPPFPQKLKFREPQREERICLVTTNFQTKRMSSMVSDTSCTFPSSDGIFWKHWIQTKRGQCGSPLVSTRDGFIVGIHSASNFANTNKYFTSVPKNFMELLTNQEAQQWVSGWRLNADSVLWGGHKVFIPKPEEPFQPVKEATQLMN
Turning to B1, the KM – broadly, the concentration of substrate that gives half-maximal velocity – is 120 µM; the kcat (in general, the number of substrate molecules converted per active site and unit of time at saturation) stood at 0.0194 s⁻¹; the catalytic efficiency (kcat/KM) – broadly, the second-order rate constant that governs catalysis at low substrate concentration – is 160 M⁻¹ s⁻¹.

B2: TEV-PH21, purified (protein)
chain: B1 chain with T21A, R124S, T150A, R152P, S157C, S172T, S174A, K181N, I222M
For the protein B2, the KM is 820 µM, the kcat amounted to 0.0171 s⁻¹ and the kcat/KM was determined as 20.7 M⁻¹ s⁻¹.

B3: wild-type TEV protease (TEV-P), purified (protein)
chain: B1 chain with R124S, R152D, A177T, K181N, I222M
As for B3, the KM came out at 110 µM, the kcat is 0.13 s⁻¹ and the kcat/KM turned out to be 1200 M⁻¹ s⁻¹.
